# T1: KaiC-R468C (Synechococcus elongatus, UniProt Q79PF4 1-519, R468C)
# T1 sequence: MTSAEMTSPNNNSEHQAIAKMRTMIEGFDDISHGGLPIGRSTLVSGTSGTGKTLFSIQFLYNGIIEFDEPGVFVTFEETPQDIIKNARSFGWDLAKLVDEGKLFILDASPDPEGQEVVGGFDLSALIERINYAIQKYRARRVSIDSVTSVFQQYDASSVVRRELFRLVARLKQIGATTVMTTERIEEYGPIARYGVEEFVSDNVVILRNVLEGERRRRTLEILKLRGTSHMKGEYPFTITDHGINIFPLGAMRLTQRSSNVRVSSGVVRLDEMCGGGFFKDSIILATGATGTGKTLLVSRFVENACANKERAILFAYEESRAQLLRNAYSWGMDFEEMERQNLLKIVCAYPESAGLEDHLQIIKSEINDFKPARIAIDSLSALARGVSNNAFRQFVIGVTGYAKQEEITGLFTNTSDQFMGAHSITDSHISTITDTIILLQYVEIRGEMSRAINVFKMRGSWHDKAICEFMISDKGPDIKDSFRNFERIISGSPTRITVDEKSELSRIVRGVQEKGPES
# Experiments:
# [1] = target: T1, KaiC-R468C; test: native gel or EMSA
# [2] = target: the molecule itself; test: cryo-EM structure
binding result [1],Binder,stoichiometry N [2]
binds,"wild-type Synechococcus elongatus KaiB (natural protein, UniProt Q79PF5 1-102, looked up) MSPRKTYILKLYVAGNTPNSVRALKTLKNILEVEFQGVYALKVIDVLKNPQLAEEDKILATPTLAKVLPLPVRRIIGDLSDREKVLIGLDLLYGELQDSDDF",–
–,"KaiC-Δ489 (C-terminally truncated form of S. elongatus KaiC) (domain or fragment, Synechococcus elongatus, UniProt Q79PF4 1-489, looked up, persistently phosphorylated (hyper-phosphorylated); sites not determined for this sample) MTSAEMTSPNNNSEHQAIAKMRTMIEGFDDISHGGLPIGRSTLVSGTSGTGKTLFSIQFLYNGIIEFDEPGVFVTFEETPQDIIKNARSFGWDLAKLVDEGKLFILDASPDPEGQEVVGGFDLSALIERINYAIQKYRARRVSIDSVTSVFQQYDASSVVRRELFRLVARLKQIGATTVMTTERIEEYGPIARYGVEEFVSDNVVILRNVLEGERRRRTLEILKLRGTSHMKGEYPFTITDHGINIFPLGAMRLTQRSSNVRVSSGVVRLDEMCGGGFFKDSIILATGATGTGKTLLVSRFVENACANKERAILFAYEESRAQLLRNAYSWGMDFEEMERQNLLKIVCAYPESAGLEDHLQIIKSEINDFKPARIAIDSLSALARGVSNNAFRQFVIGVTGYAKQEEITGLFTNTSDQFMGAHSITDSHISTITDTIILLQYVEIRGEMSRAINVFKMRGSWHDKAIREFMISDKGPDIKDSFRNFERI",6
